Common to all, as to experiment: fluorescence polarisation
Experiment [1] addresses CBP KIX domain (CREBBP KIX domain) (human) (UniProt Q92793).
Experiment [2] has as its target Human P300 KIX domain (EP300 KIX domain) (human) (UniProt Q09472).
Experiment [3] addresses CBP KIX domain (CREBBP KIX domain) (human) (UniProt Q92793). The source holds these as a separate data set.
The target in experiment [4] is Human P300 KIX domain (EP300 KIX domain) (human) (UniProt Q09472). This is another data set of the same source.
Chain of Human P300 KIX domain (EP300 KIX domain) (human) (Q09472 565-652): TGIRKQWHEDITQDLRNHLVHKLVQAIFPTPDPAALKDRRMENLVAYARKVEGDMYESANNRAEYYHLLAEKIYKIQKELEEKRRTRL
The target of experiment [5] is Human P300 KIX domain (EP300 KIX domain) (human, UniProt Q09472 565-652).
Chain of Human P300 KIX domain (EP300 KIX domain) (Q09472 565-652): as above
Experiment [6] addresses CBP KIX domain (CREBBP KIX domain) (human, UniProt Q92793 585-672).

Read-outs that look alike come from different tables or passages of the source. Ends that are not written are not given here. * marks the point of attachment. FITC = O=C1OC2(c3ccc(O)cc3Oc3cc(O)ccc32)c2ccc(NC(=S)*)cc21

Chain of CBP KIX domain (CREBBP KIX domain) (human) (Q92793 585-672): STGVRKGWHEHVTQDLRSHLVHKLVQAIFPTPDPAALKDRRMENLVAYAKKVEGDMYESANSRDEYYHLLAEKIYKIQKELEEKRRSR
Chain of CBP KIX domain (CREBBP KIX domain) (Q92793 585-672): as above

As for “MLL28MYB30 (M/M) fusion peptide, purified”, the IC50 in experiment [1] is 22 µM; in experiment [2], 8.5 µM; in experiment [3], 23 µM; in experiment [4] it was 8.3 µM.
{FITC}-KEKRIKELELLLMSTENELKGQQAL [FITC-labelled MYB peptide (MYB25)]: the Kd in experiment [5] worked out at 3.8 ± 0.2 µM.
With SDDGNILPSDIMDFVLKNTPSMQAL (also: rhodamine label, position not given here) [Rhodamine-labelled MLL peptide (MLL25)], the Kd stood at 40 ± 14 µM in experiment [5] and 94 ± 11 µM in experiment [6].

Source of the values: doi:10.1101/2021.06.03.446569 (bioRxiv, 2021).
